The values that follow come from paper PMC3518219 (The Journal of Cell Biology, 2012).

The target in the assay is T1, GST-RadilPDZ (human, UniProt Q96JH8 870-1075).
T1 sequence (looked up): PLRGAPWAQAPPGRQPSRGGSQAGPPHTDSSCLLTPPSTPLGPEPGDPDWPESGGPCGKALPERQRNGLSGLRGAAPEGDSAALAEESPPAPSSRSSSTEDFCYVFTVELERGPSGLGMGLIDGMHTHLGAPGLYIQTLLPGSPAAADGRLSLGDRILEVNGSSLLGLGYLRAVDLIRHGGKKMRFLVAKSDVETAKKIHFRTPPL
In words: pull-down.

B1: Flag-KIF14-ctail-IQWV (domain or fragment, human, UniProt Q15058 1483-1648, looked up)
chain: VQEENFEYQDFKRMVNRAPEFLKLKHCLEKAIEIIISALKGCHSDINLLQTCVESIRNLASDFYSDFSVPSTSVGSYESRVTHIVHQELESLAKSLLFCFESEESPDLLKPWETYNQNTKEEHQQSKSSGIDGSKNKGVPKRVYELHGSSPAVSSEECTPSRIQWV
In the case of B1, the binding result is given as “binds”.
